# Results: IntAct's records for PubMed 35512704
# B1: Mothers against decapentaplegic homolog 4 (Homo sapiens), Q13485 (parent)
# chain: MDNMSITNTPTSNDACLSIVHSLMCHRQGGESETFAKRAIESLVKKLKEKKDELDSLITAITTNGAHPSKCVTIQRTLDGRLQVAGRKGFPHVIYARLWRWPDLHKNELKHVKYCQYAFDLKCDSVCVNPYHYERVVSPGIDLSGLTLQSNAPSSMMVKDEYVHDFEGQPSLSTEGHSIQTIQHPPSNRASTETYSTPALLAPSESNATSTANFPNIPVASTSQPASILGGSHSEGLLQIASGPQPGQQQNGFTGQPATYHHNSTTTWTGSRTAPYTPNLPHHQNGHLQHHPPMPPHPGHYWPVHNELAFQPPISNHPAPEYWCSIAYFEMDVQVGETFKVPSSCPIVTVDGYVDPSGGDRFCLGQLSNVHRTEAIERARLHIGKGVQLECKGEGDVWVRCLSDHAVFVQSYYLDREAGRAPGDAVHKIYPSAYIKVFDLRQCHRQMQQQAATAQAAAAAQAAAVAGNIPGPGSVGGIAPAISLSAAAGIGVDDLRRLCILRMSFVKGWGPDYPRQSIKETPCWIEIHLHRALQLLDEVLHTMPIADPQPLD
# partner: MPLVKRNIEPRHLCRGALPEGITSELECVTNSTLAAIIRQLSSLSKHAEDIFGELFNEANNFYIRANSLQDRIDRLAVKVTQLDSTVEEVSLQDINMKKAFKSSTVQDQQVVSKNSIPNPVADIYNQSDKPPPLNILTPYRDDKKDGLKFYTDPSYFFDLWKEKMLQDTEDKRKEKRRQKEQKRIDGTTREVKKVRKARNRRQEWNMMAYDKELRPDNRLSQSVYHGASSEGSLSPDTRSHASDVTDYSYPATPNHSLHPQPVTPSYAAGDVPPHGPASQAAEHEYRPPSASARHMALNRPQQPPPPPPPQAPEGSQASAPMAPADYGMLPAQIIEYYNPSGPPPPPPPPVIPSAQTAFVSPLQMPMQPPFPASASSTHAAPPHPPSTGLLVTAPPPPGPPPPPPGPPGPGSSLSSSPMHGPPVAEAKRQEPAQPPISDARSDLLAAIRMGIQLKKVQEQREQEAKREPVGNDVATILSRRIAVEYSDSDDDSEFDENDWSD
# B2: Mothers against decapentaplegic homolog 4 (Homo sapiens), Q13485 (parent)
# chain: B1 chain
# partner: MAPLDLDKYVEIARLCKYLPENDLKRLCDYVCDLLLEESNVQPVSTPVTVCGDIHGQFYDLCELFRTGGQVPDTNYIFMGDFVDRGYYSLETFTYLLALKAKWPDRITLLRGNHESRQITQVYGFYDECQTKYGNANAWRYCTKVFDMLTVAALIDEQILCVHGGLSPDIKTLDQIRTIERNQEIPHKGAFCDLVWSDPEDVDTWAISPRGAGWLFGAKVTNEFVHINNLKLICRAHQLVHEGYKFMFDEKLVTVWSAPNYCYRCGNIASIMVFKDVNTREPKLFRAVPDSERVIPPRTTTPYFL
# B3: Mothers against decapentaplegic homolog 4 (Homo sapiens), Q13485 (parent)
# chain: B1 chain
# partner: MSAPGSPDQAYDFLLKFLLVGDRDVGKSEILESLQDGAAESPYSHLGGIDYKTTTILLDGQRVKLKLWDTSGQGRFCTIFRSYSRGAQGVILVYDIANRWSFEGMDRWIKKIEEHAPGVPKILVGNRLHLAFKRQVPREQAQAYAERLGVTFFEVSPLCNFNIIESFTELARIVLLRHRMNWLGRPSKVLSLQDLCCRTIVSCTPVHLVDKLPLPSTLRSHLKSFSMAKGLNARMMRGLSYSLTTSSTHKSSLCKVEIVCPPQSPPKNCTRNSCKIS
# B4: Mothers against decapentaplegic homolog 4 (Homo sapiens), Q13485 (parent)
# chain: B1 chain
# partner: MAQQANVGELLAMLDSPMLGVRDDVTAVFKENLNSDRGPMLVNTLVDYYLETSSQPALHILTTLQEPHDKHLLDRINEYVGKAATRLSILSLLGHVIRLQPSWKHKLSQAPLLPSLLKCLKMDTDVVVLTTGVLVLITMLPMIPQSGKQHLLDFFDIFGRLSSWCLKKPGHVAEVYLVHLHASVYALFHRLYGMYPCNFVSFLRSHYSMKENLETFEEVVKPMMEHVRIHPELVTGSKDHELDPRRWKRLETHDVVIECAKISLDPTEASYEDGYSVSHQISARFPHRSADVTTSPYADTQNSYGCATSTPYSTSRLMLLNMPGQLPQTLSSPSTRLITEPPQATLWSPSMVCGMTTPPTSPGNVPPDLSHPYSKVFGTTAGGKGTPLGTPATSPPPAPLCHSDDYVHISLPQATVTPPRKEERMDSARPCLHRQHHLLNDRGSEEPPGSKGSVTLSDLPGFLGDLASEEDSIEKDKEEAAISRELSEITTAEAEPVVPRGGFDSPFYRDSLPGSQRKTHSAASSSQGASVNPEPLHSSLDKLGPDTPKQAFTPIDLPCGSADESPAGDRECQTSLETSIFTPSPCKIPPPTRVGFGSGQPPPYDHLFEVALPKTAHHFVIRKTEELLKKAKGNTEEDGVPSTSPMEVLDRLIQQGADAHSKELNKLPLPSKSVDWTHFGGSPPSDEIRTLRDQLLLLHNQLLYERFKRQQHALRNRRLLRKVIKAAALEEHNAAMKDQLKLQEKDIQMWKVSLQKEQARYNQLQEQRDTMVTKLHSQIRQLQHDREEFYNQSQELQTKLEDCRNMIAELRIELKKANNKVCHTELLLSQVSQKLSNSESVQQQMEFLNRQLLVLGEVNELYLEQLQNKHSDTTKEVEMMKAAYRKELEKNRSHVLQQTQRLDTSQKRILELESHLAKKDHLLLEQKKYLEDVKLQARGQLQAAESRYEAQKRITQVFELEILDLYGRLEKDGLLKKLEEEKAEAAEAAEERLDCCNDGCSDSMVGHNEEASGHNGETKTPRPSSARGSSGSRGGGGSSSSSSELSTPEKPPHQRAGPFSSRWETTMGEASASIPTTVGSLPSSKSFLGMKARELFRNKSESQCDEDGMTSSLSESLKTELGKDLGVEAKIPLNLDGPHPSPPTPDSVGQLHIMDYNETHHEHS
# B5: Mothers against decapentaplegic homolog 4 (Homo sapiens), Q13485 (parent)
# chain: B1 chain
# partner: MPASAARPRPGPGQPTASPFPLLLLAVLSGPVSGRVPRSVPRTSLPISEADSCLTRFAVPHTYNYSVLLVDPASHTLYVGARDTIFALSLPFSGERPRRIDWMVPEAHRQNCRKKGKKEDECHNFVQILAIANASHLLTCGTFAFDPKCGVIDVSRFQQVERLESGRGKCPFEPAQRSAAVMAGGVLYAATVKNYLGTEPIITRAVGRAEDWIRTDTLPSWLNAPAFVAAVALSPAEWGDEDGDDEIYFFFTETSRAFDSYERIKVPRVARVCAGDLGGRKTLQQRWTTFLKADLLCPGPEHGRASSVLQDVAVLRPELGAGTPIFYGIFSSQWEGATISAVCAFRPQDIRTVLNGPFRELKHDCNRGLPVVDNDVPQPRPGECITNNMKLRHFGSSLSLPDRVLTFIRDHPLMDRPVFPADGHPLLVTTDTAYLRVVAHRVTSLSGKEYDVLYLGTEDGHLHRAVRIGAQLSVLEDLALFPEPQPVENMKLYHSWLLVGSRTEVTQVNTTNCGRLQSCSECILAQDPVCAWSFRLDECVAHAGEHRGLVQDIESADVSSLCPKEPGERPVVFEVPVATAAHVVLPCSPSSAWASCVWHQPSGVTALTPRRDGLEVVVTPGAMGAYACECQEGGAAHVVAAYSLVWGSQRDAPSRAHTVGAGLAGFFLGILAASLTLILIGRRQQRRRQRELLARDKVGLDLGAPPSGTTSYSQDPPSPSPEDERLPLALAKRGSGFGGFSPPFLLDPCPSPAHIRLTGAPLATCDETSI
# Variants of: B1
# Details: with wasf3_human WASF3, Q9UPY6
row,effect of a mutation on the interaction,Variant
1,with no effect,R361C

# Variants of: B1
# Details: with wasf3_human WASF3, Q9UPY6
# Remark: another data set of the same source
row,effect of a mutation on the interaction,Variant
1,with no effect,R361H

# Variants of: B1
# Details: with wasf3_human WASF3, Q9UPY6
# Remark: another data set of the same source
row,effect of a mutation on the interaction,Variant
1,with no effect,G386D

# Variants of: B1
# Details: with wasf3_human WASF3, Q9UPY6
# Remark: another data set of the same source
row,effect of a mutation on the interaction,Variant
1,increasing interaction strength,G386D

# Variants of: B1
# Details: with wasf3_human WASF3, Q9UPY6
# Remark: another data set of the same source
row,effect of a mutation on the interaction,Variant
1,with no effect,D351H

# Variants of: B2
# Details: with ppp6_human PPP6C
row,effect of a mutation on the interaction,Variant
1,with no effect,R361C

# Variants of: B2
# Details: with ppp6_human PPP6C
# Remark: another data set of the same source
row,effect of a mutation on the interaction,Variant
1,with no effect,G386D

# Variants of: B2
# Details: with ppp6_human PPP6C
# Remark: another data set of the same source
row,effect of a mutation on the interaction,Variant
1,increasing interaction strength,G386D

# Variants of: B3
# Details: with rb40a_human RAB40A
row,effect of a mutation on the interaction,Variant
1,with no effect,G386D

# Variants of: B4
# Details: with tsc1_human TSC1, Q92574
row,effect of a mutation on the interaction,Variant
1,with no effect,G386D

# Variants of: B4
# Details: with tsc1_human TSC1, Q92574
# Remark: another data set of the same source
row,effect of a mutation on the interaction,Variant
1,with no effect,R361C

# Variants of: B4
# Details: with tsc1_human TSC1, Q92574
# Remark: another data set of the same source
row,effect of a mutation on the interaction,Variant
1,with no effect,R361H

# Variants of: B4
# Details: with tsc1_human TSC1, Q92574
# Remark: another data set of the same source
row,effect of a mutation on the interaction,Variant
1,with no effect,D351H

# Variants of: B5
# Details: with sem4f_human SEMA4F
row,effect of a mutation on the interaction,Variant
1,with no effect,G386D

# Variants of: B5
# Details: with sem4f_human SEMA4F
# Remark: another data set of the same source
row,effect of a mutation on the interaction,Variant
1,causing an interaction,G386D
